These are literature values, as cited in paper PMC3393814.

This data set has as its target Nrf2 14mer peptide (Homo sapiens). Nature of the data set: ITC. Background: In ITC the heat of successive injections is recorded.

As to Keap1 (from UniProt Q14145), the Kd – broadly, the concentration at which binding is half-saturated – was 20 nM.
